Entries after “also recorded” stand apart in the source; their conditions may differ.
Tests used:
[1] = tested on: MORC4; assay: ATPase activity assay (EnzChek Phosphate Assay Kit); type: biochemical, human; settings: listed as E56A mutant of MORC4
Method: To determine whether MORC4 is catalytically active, we produced the ATPase domain of human MORC4 and examined its ability to hydrolyze ATP in enzymatic assays (Fig. 1a–c). Following incubation of the ATPase domain with ATP, 2-amino-6-mercapto-7-methylpurine ribonucleoside and nucleoside phosphorylase, the release of inorganic phosphate generated by the hydrolysis of ATP to ADP was monitored by measuring an increase in absorbance at 360 nm.
The ATPase assays were performed using the EnzChek Phosphate Assay Kit (Invitrogen, item # E6646). The reactions were carried out on 1.0 µM of MORC4 His-ATPase or ATPaseCW (WT and mutants), in the presence and absence of 1 µM 601 DNA or 50 µM of unmodified H3 or H3K4me3 peptide (aa 1–12 of H3) in a buffer containing 50 mM Tris-HCl (pH 7.5), 150 mM NaCl, 1 mM MgCl2, 0.1 mM sodium azide, 200 µM MESG, and 1 U of PNP. In assay with the nucleosome, 0.5 µM of MORC4 ATPaseCW and 0.5 µM NCP167 (Activemotif) were used. The reaction was started by adding 2 mM ATP to the mixture at room temperature, and the release of inorganic phosphate was monitored by measuring the absorbance at 360 nm on a Nanodrop 2000c spectrophotometer (Thermo Scientific). In the presence of inorganic phosphate, produced by the hydrolysis of ATP to ADP, MESG is enzymatically converted to ribose 1-phosphate and […] by PNP, resulting in a shift in the wavelength absorbance from 330 nm for MESG to 360 nm for the product. The rate of ATP self-hydrolysis was measured in parallel. Error was calculated as the S.D. of at least three separate experiments (two in Fig. 4j).

[2] = tested on: 601 DNA; assay: EMSA with 601 DNA; type: binding; settings: 147 bp 601 DNA 5 pmol, pH 7.5, 150 mM NaCl, 0.5 h on ice, listed as E56A mutant of MORC4
Method: EMSA experiments were performed essentially as described. In brief, increasing amounts of WT or mutant CW or ATPaseCW cassette of MORC4 were incubated with 147 bp 601 DNA (5 pmol) or 50 ng of O’RangeRuler 5 bp ladder (Thermo Scientific) in a DNA-binding buffer containing 20 mM Tris-HCl (pH 7.5), 150 mM NaCl, 2.5 mM MgCl2, and 2 mM DTT for 0.5 h on ice. The reaction mixtures were loaded on 5% native polyacrylamide gels, and electrophoresis was performed in 0.2× Tris-borate-EDTA (TBE) buffer at 100 V for 1.2 h on ice. Gels were stained with SYBR Gold (Invitrogen).

[3] = tested on: HEK293T cells; assay: MORC4 localization and nuclear bodies (confocal microscopy); type: cell-based; settings: 127 cells quantified
Method: WT mCherry-MORC4, mCherry-MORC4 E56A, mCherry-MORC4 W435A, mCherry-MORC4 E56A/W435A, mCherry-MORC4 K460A/R462A/R463A, or mCherry control plasmid were transfected into 2 million 293T-HEK cells seeded on 25 mm circular coverslips (Carolina Biological Supply Item#: 633057) in 10-cm-diameter tissue culture dish by Lipofectamine 3000 (Life Technology, L3000-075) following the manufacturer’s instructions. Two days after transfection, cells were stained with Hoechst […] for 30 min and imaged live on a ZeissAxiovert 200 M inverted microscope fitted with a ×40 oil objective. Images were acquired with Slidebook 6 software and exported for analysis in Image J.
mCherry foci sizes were calculated using ImageJ image processing program (version 1.51) using the Analyze Particle tool. mCherry particle sizes were collected for MORC4 WT and MORC4 W435A transfected cells. Data were plotted with R (version 3.4.1) using ggplot2 (version 3.2.1). Cell size and mCherry foci count per cell were calculated using CellProfile cell image analysis software (version 3.1.5) to identify nuclei and mCherry foci, relate mCherry foci to nuclei containing them and measure the size of nuclei and number mCherry foci contained. Data were plotted with R (version 3.4.1) using ggplot2 (version 3.2.1).

[4] = tested on: HEK293T cells; assay: Cell cycle analysis by flow cytometry; type: cell-based; settings: 48-h overexpression of mCherry-tagged protein, EdU/PI; average of three independent experiments; control 34.5%
Method: For DNA content analysis, 10^6 cells previously transfected with mCherry MORC4 constructs and labeled with 25 µM Ethynyl deoxyUridine (EdU) for 1 h in 100 µL were washed with PBS (NaCl 137 mM, KCl 2.7 mM, Na2HPO4 10 mM, KH2PO4 1.8 mM) and fixed in ice cold 70% ethanol overnight. Fixed cells were washed and resuspended in PBS containing 0.05% NP40 and incubated at room temperature for 30 min. Cells were again washed with PBS. Cells were resuspended in Alexa Fluor 647 click staining solution (100 mM Tris pH 7.6, 4 mM CuSO4, 3 µM AF647 azide, 100 mM Sodium Ascorbate) for 1 h. Following staining, cells were washed with PBS and then stained for total DNA content using 10 μg/mL propidium iodide (PI) and 0.2 mg/ml RNase A for 60 min before analysis on a FACScan instrument. Data were analyzed using FlowJo (Version 10) with cells gated to remove doublets. EdU vs PI plots were gated in quadrants to identify G1, early S, late S and G2/M cells. S phase fractions were summed for total S phase population. […]

B1: MORC4 E56A: mCherry-tagged full-length MORC4 E56A mutant, catalytically impaired ATPase domain (protein, UniProt Q8TE76 1-937, looked up, variant E56A)
chain: MLLYRGAPAGPGAPGCGLARPGGGPQAFGIRLSTMSPRYLQSNSSSHTRPFSAIAALLDNAVDPDVSARTVFIDVEEVKNKSCLTFTDDGCGMTPHKLHRMLSFGFTDKVIKKSQCPIGVFGNGFKSGSMRLGKDALVFTKNGGTLTVGLLSQTYLECVQAQAVIVPIVPFNQQNKKMIITEDSLPSLEAILNYSIFNRENDLLAQFDAIPGKKGTRVLIWNIRRNKNGKSELDFDTDQYDILVSDFDTEEKMTGGVTSELPETEYSLRAFCGILYMKPRMKIFLRQKKVTTQMIAKSLANVEYDTYKPTFTNKQVRITFGFSCKNSNQFGIMMYHNNRLIKSFEKVGCQVKPTRGEGVGVIGVIECNFLKPAYNKQDFEYTKEYRLTINALAQKLNAYWKEKTSQDNFETSTVARPIPKVPDQTWVQCDECLKWRKLPGKIDPSMLPARWFCYYNSHPKYRRCSVPEEQELTDEDLCLSKAKKQEQTVEEKKKMPMENENHQVFSNPPKILTVQEMAGLNNKTIGYEGIHSPSVLPSGGEESRSPSLQLKPLDSSVLQFSSKYKWILGEEPVEKRRRLQNEMTTPSLDYSMPAPYRRVEAPVAYPEGENSHDKSSSERSTPPYLFPEYPEASKNTGQNREVSILYPGAKDQRQGSLLPEELEDQMPRLVAEESNRGSTTINKEEVNKGPFVAVVGVAKGVRDSGAPIQLIPFNREELAERRKAVESWNPVPYSVASAAIPAAAIGEKARGYEESEGHNTPKLKNQRELEELKRTTEKLERVLAERNLFQQKVEELEQERNHWQSEFKKVQHELVIYSTQEAEGLYWSKKHMGYRQAEFQILKAELERTKEEKQELKEKLKETETHLEMLQKAQVSYRTPEGDDLERALAKLTRLRIHVSYLLTSVLPHLELREIGYDSEQVDGILYTVLEANHILD
modifications: full-length mCherry tag
catalytic (ATPase) activity of the protein [1]: catalytically impaired ATPase domain; also recorded: catalytically inactive | binding to 601 DNA [2]: retains its DNA-binding activity; also recorded: binds DNA as WT MORC4 | number of NBs compared to wild type [3]: significant increase in number of mCherry foci per cell | size of NBs compared to wild type [3]: significant decrease in mCherry foci size | number of NBs compared to wild type ([3]; listed as E56A mutant of MORC4): notable increase in the number of NBs | size of NBs compared to wild type ([3]; listed as E56A mutant of MORC4): decrease in the size of NBs | percent of cells in S phase [4]: 36.3%
